The values below come from US20020098524A1 (published 2002).

Test [1] has as its target T1, human (h)TNF-α (human, UniProt P01375 77-233).
T1 construct: Bought purified protein; also called TNF-alpha; Tumor Necrosis Factor α
The test can be described thus: phage display selection on hTNF-α-coated tube, PCR of phage still bound after acid wash. The method, then: A thin-walled PCR tube was coated with the target human (h)TNF-α (BioSource International; Camarillo, Calif.) by incubating 100 μl of 0.5 mg/ml purified TNF-α in PBS overnight at 4° C. in the PCR tube. Excess unbound TNF-α was removed, and the tube was coated overnight at 4° C. with 100 μl of SuperBlock™ blocking buffer (Pierce: Rockford, Ill.) in Tris buffered saline (TBS). The anti-target (SuperBlock™ blocking buffer) was prepared in separate PCR tubes coated overnight at 4° C. with 100 μl of SuperBlock™.
Unbound phage were removed by washing the tube 5 times with 150 μl PBS containing 0.1% Tween-20 at room temperature. Low affinity binders were washed away by incubating with 60 μl of 0.2 M Glycine (pH 2.2) for 6 minutes followed by neutralization with 9 μl M Tris-Cl (pH 9.1). The acid washed population was retained for further analysis. The tube was then washed again 3 times with 150 μl of PBS.
This was due to too much template (i.e. phage) in the PCR reaction, and can be alleviated by decreasing the phage concentration or by decreasing the number of PCR cycles (FIG. 3). To decrease the amount of the 500-700 bp diffuse band, the PCR product was diluted appropriately for subsequent PCR reactions from this starting material to generate more products for sub-cloning purposes.

For test [2], the target named is T1, human (h)TNF-α. Description: IAsys biosensor, dissociation in 10 mM HEPES/0.05% Tween. As for the experimental part:
The binding and dissociation of phage clone A1, amino acid sequence: RYWQDIP; Table 1, (SEQ ID NO: 3) to TNF-α was monitored using an lAsys AutoPlus Biosensor following the Labsystems Affinity Sensors lAsys Protocol 2.4 ‘Immobilization to Protein Layer: Thiol coupling to avidin’ (Thermo BioAnalysis Corp. Franklin, Mass.). Two cuvettes were first coated with avidin and one (the control) was then blocked with biotin. This was followed by activation of the lysine groups. A 15 μl aliquot of a 1 mg/ml (h)TNF-α solution was added to each cuvette. […] After blocking and washing, phage clone A1, RYWQDIP (SEQ ID NO: 3) was added to give a final titer of 5×10¹¹ pfu/ml.
The dissociation of the phage from the TNF-α is very slow with the dissociation constant estimated as koff<10⁻⁴ sec⁻¹ (10 mM HEPES/0.05% Tween). Washing with a 1×buffer concentrate (at the 70 min time point) only removed a small portion of the phage.

T1 sequence (P01375 77-233 limits assumed): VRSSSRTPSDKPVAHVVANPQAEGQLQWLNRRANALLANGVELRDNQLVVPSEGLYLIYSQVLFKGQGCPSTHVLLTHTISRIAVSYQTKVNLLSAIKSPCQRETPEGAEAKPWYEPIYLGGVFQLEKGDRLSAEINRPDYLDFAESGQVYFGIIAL

As to GQTHFHV [T11 (GQTHFHV)], the binding result in test [1] is recorded as “binds”.

For the molecule SILPVSH [T13 (SILPVSH)], the binding result in test [1] is recorded as “binds”.

For the molecule QPLRKLP [T15 (QPLRKLP)], the binding result in test [1] is given as “binds”.

DMIMVSI [T3 (DMIMVSI)]: the binding result in test [1] is listed as “binds”.

THKNTLR [T10 (THKNTLR)]: the binding result in test [1] is recorded as “binds”.

For the molecule RYWQDIP (also called T1; phage peptide clone A1) [phage clone A1, amino acid sequence RYWQDIP], in test [2], the dissociation rate constant (koff) (as a rule, the first-order rate constant of dissociation) was under 0.0001 s⁻¹.

For LSQPIPI [T14 (LSQPIPI)], the binding result in test [1] is recorded as “binds”.

Turning to TMLPYRP [T7 (TMLPYRP)], the binding result in test [1] is reported as “binds”.

As to ASTVGGL [T6 (ASTVGGL)], the binding result in test [1] is recorded as “binds”.

Regarding LTQSFSS [T9 (LTQSFSS)], the binding result in test [1] is given as “binds”.

With ATFPNQS [T5 (ATFPNQS)], in test [1], the binding result is recorded as “binds”.

Take LPILTQT [T12 (LPILTQT)]: in test [1], the binding result is “binds”.

Turning to AWHSPSV [T8 (AWHSPSV)], the binding result in test [1] is on record as “binds”.

As for WTPKPTQ [T4 (WTPKPTQ)], the binding result in test [1] was “binds”.

On to APEPILA [T2 (APEPILA)], for which the binding result in test [1] was “binds”.
